Measured values from US20080207517A1 (INSTITUT PASTEUR, published 2008).
* marks the point of attachment. BODIPYFLEthylmaleimide = Cc1cc(C)n2c1C=C1C=CC(CCC(=O)NCCN3C(=O)CC(*)C3=O)=[N+]1[B-]2(F)F

T1: CC2 (WT) (murine, N-terminal acetyl group; C-terminal amide)
T1 construct: Forms a trimer at 10 uM in gel filtration; also called CC2 peptide; CC2 wild type
T1 peptide: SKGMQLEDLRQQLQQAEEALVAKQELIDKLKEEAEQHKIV

B1: BODIPY-Ant-CC2 (WT) (peptide)
peptide: Ac-C(BODIPYFLEthylmaleimide)RQIKIWFQNRRMKWKKSKGMQLEDLRQQLQQAEEALVAKQELIDKLKEEAEQHKIV-NH2
notes: Synthetic peptide; elutes as a monomer in gel filtration at 10 uM; also called Ant-CC2 BODIPY peptide
B2: BODIPY-R7-NLM-DR (peptide)
peptide: Ac-C(BODIPYFLEthylmaleimide)RRRRRRRLKAQADIYKARFQAERHAREK-NH2
SMILES: CC[C@H](C)[C@H](NC(=O)[C@H](CC(=O)O)NC(=O)[C@H](C)NC(=O)[C@H](CCC(N)=O)NC(=O)[C@H](C)NC(=O)[C@H](CCCCN)NC(=O)[C@H](CC(C)C)NC(=O)[C@H](CCCNC(=N)N)NC(=O)[C@H](CCCNC(=N)N)NC(=O)[C@H](CCCNC(=N)N)NC(=O)[C@H](CCCNC(=N)N)NC(=O)[C@H](CCCNC(=N)N)NC(=O)[C@H](CCCNC(=N)N)NC(=O)[C@H](CCCNC(=N)N)NC(=O)[C@H](CSC1CC(=O)N(CCNC(=O)CCC2=[N+]3C(=Cc4c(C)cc(C)n4[B-]3(F)F)C=C2)C1=O)NC(C)=O)C(=O)N[C@@H](Cc1ccc(O)cc1)C(=O)N[C@@H](CCCCN)C(=O)N[C@@H](C)C(=O)N[C@@H](CCCNC(=N)N)C(=O)N[C@@H](Cc1ccccc1)C(=O)N[C@@H](CCC(N)=O)C(=O)N[C@@H](C)C(=O)N[C@@H](CCC(=O)O)C(=O)N[C@@H](CCCNC(=N)N)C(=O)N[C@@H](Cc1c[nH]cn1)C(=O)N[C@@H](C)C(=O)N[C@@H](CCCNC(=N)N)C(=O)N[C@@H](CCC(=O)O)C(=O)N[C@@H](CCCCN)C(N)=O
B3: BODIPY-Ant-LZ (WT) (peptide)
peptide: Ac-C(BODIPYFLEthylmaleimide)RQIKIWFQNRRMKWKKLKAQADIYKADFQAERHAREKLVEKKEYLQEQLEQLQREFNKL-NH2
notes: Synthetic peptide; elutes as a monomer in gel filtration at 10 uM
B4: CC2 (Mu) (peptide)
peptide: Ac-SKGMQLEDLRQQGQQAEEAGVAKQELGDKLKEEAEQHKIV-NH2
notes: As for CC2 (WT), the printed theoretical mass (3987.43 Da) fits residues 6-40 only; also called CC2 mutant
B5: BODIPY-Ant-LZ (Mu) (peptide)
peptide: Ac-C(BODIPYFLEthylmaleimide)RQIKIWFQNRRMKWKKLKAQADIYKADFQAERHAREKLVEKKEYSQEQLEQSQREFNKL-NH2
notes: Two L to S mutations at d positions; also called BODIPY-Ant LZ mutant
B6: BODIPY-Ant-NLM-DR (peptide)
peptide: Ac-C(BODIPYFLEthylmaleimide)RQIKIWFQNRRMKWKKLKAQADIYKARFQAERHAREK-NH2
SMILES: CC[C@H](C)[C@H](NC(=O)[C@H](CC(=O)O)NC(=O)[C@H](C)NC(=O)[C@H](CCC(N)=O)NC(=O)[C@H](C)NC(=O)[C@H](CCCCN)NC(=O)[C@H](CC(C)C)NC(=O)[C@H](CCCCN)NC(=O)[C@H](CCCCN)NC(=O)[C@H](Cc1c[nH]c2ccccc12)NC(=O)[C@H](CCCCN)NC(=O)[C@H](CCSC)NC(=O)[C@H](CCCNC(=N)N)NC(=O)[C@H](CCCNC(=N)N)NC(=O)[C@H](CC(N)=O)NC(=O)[C@H](CCC(N)=O)NC(=O)[C@H](Cc1ccccc1)NC(=O)[C@H](Cc1c[nH]c2ccccc12)NC(=O)[C@@H](NC(=O)[C@H](CCCCN)NC(=O)[C@@H](NC(=O)[C@H](CCC(N)=O)NC(=O)[C@H](CCCNC(=N)N)NC(=O)[C@H](CSC1CC(=O)N(CCNC(=O)CCC2=[N+]3C(=Cc4c(C)cc(C)n4[B-]3(F)F)C=C2)C1=O)NC(C)=O)[C@@H](C)CC)[C@@H](C)CC)C(=O)N[C@@H](Cc1ccc(O)cc1)C(=O)N[C@@H](CCCCN)C(=O)N[C@@H](C)C(=O)N[C@@H](CCCNC(=N)N)C(=O)N[C@@H](Cc1ccccc1)C(=O)N[C@@H](CCC(N)=O)C(=O)N[C@@H](C)C(=O)N[C@@H](CCC(=O)O)C(=O)N[C@@H](CCCNC(=N)N)C(=O)N[C@@H](Cc1c[nH]cn1)C(=O)N[C@@H](C)C(=O)N[C@@H](CCCNC(=N)N)C(=O)N[C@@H](CCC(=O)O)C(=O)N[C@@H](CCCCN)C(N)=O
B7: BODIPY-Ant-CC2 (Mu) (peptide)
peptide: Ac-C(BODIPYFLEthylmaleimide)RQIKIWFQNRRMKWKKSKGMQLEDLRQQGQQAEEAGVAKQELGDKLKEEAEQHKIV-NH2
notes: also called CC2 variant
B8: BODIPY-R9-NLM-DR (peptide)
peptide: Ac-C(BODIPYFLEthylmaleimide)RRRRRRRRRLKAQADIYKARFQAERHAREK-NH2
SMILES: CC[C@H](C)[C@H](NC(=O)[C@H](CC(=O)O)NC(=O)[C@H](C)NC(=O)[C@H](CCC(N)=O)NC(=O)[C@H](C)NC(=O)[C@H](CCCCN)NC(=O)[C@H](CC(C)C)NC(=O)[C@H](CCCNC(=N)N)NC(=O)[C@H](CCCNC(=N)N)NC(=O)[C@H](CCCNC(=N)N)NC(=O)[C@H](CCCNC(=N)N)NC(=O)[C@H](CCCNC(=N)N)NC(=O)[C@H](CCCNC(=N)N)NC(=O)[C@H](CCCNC(=N)N)NC(=O)[C@H](CCCNC(=N)N)NC(=O)[C@H](CCCNC(=N)N)NC(=O)[C@H](CSC1CC(=O)N(CCNC(=O)CCC2=[N+]3C(=Cc4c(C)cc(C)n4[B-]3(F)F)C=C2)C1=O)NC(C)=O)C(=O)N[C@@H](Cc1ccc(O)cc1)C(=O)N[C@@H](CCCCN)C(=O)N[C@@H](C)C(=O)N[C@@H](CCCNC(=N)N)C(=O)N[C@@H](Cc1ccccc1)C(=O)N[C@@H](CCC(N)=O)C(=O)N[C@@H](C)C(=O)N[C@@H](CCC(=O)O)C(=O)N[C@@H](CCCNC(=N)N)C(=O)N[C@@H](Cc1c[nH]cn1)C(=O)N[C@@H](C)C(=O)N[C@@H](CCCNC(=N)N)C(=O)N[C@@H](CCC(=O)O)C(=O)N[C@@H](CCCCN)C(N)=O
B9: BODIPY-TAT-NLM-DR (peptide)
peptide: Ac-C(BODIPYFLEthylmaleimide)YGRKKRRQRRRLKAQADIYKARFQAERHAREK-NH2
SMILES: CC[C@H](C)[C@H](NC(=O)[C@H](CC(=O)O)NC(=O)[C@H](C)NC(=O)[C@H](CCC(N)=O)NC(=O)[C@H](C)NC(=O)[C@H](CCCCN)NC(=O)[C@H](CC(C)C)NC(=O)[C@H](CCCNC(=N)N)NC(=O)[C@H](CCCNC(=N)N)NC(=O)[C@H](CCCNC(=N)N)NC(=O)[C@H](CCC(N)=O)NC(=O)[C@H](CCCNC(=N)N)NC(=O)[C@H](CCCNC(=N)N)NC(=O)[C@H](CCCCN)NC(=O)[C@H](CCCCN)NC(=O)[C@H](CCCNC(=N)N)NC(=O)CNC(=O)[C@H](Cc1ccc(O)cc1)NC(=O)[C@H](CSC1CC(=O)N(CCNC(=O)CCC2=[N+]3C(=Cc4c(C)cc(C)n4[B-]3(F)F)C=C2)C1=O)NC(C)=O)C(=O)N[C@@H](Cc1ccc(O)cc1)C(=O)N[C@@H](CCCCN)C(=O)N[C@@H](C)C(=O)N[C@@H](CCCNC(=N)N)C(=O)N[C@@H](Cc1ccccc1)C(=O)N[C@@H](CCC(N)=O)C(=O)N[C@@H](C)C(=O)N[C@@H](CCC(=O)O)C(=O)N[C@@H](CCCNC(=N)N)C(=O)N[C@@H](Cc1c[nH]cn1)C(=O)N[C@@H](C)C(=O)N[C@@H](CCCNC(=N)N)C(=O)N[C@@H](CCC(=O)O)C(=O)N[C@@H](CCCCN)C(N)=O

Tests used:
[1] = molecular target: T2, NEMO (NF-kB essential modulator), murine (murine, UniProt O88522 1-412); experiment: cell-based or functional assay
[2] = molecular target: the molecule itself; experiment: gel filtration (Superdex 75), self-association
Experimental: The oligomeric states of peptides were determined by filtration as described in Traincard et al., 2003. In brief, 500 μl samples were loaded on a SUPERDEX™ 75 HR 10/30 column equilibrated in 50 mM Tris-HCl pH 8.0 containing 200 mM NaCl and 0.1 mM DDM, at a constant flow rate of 0.4 ml/min. The presence of the DDM detergent was added in the equilibrium buffer to minimize the adsorption in the column and to increase the peptide recovery. The column was calibrated in the same equilibrium buffer with blue dextran 2000 (void volume), dithioerythritol (total volume), bovine serum albumin (67 kDa, Rs=35.2 Å), ovalbumine (43 kDa, Rs=27.5 Å), chymotrypsinogen A (25 kDa, Rs=21.1 Å), ribonuclease A (13.7 kDa, Rs=16.4 Å), cytochrome C (12.4 kDa, Rs=17.7 Å) and aprotinin (6.5 KDa, Rs=13.5 Å).

[3] = molecular target: T1, CC2 (WT); experiment: fluorescence anisotropy, 1 µM BODIPY-Ant-CC2 titrated with CC2
Experimental: (§1) (A) Direct titration of BODIPY-Ant-CC2 (1 μM) with CC2 by fluorescence anitropy. The concentration of CC2 was determined by amino acid analysis. Anisotropy values of BODIPY-Ant-CC2 in milliunits (mA) were plotted against an increasing concentration of the CC2 peptide. […] The two dashed lines represent a stoichiometric titration and intersect at an CC2 concentration of […]. Given the 1 μM concentration of the BODIPY-Ant-CC2, this gives a complex stoechiometrie of 0.8. (B) Direct titration of BODIPY-Ant-LZ (0.1 μM) with CC2 by fluorescence anitropy. The anisotropy values of the BODIPY-Ant-LZ alone (white bar) or in the presence of the CC2 peptide (30 μM, grey bar; 100 μM, black bar) are given in milliunits (mA).
(§2) Anisotropy measurements were performed with a PTI […]™ fluorometer equipped with polarizers for the excitation and emission beams. This instrument uses a PMT in the L-configuration. […] Steady-state fluorescence anisotropy was expressed as millianisotropy (mA) and was calculated according to the equations: (1) A=(IVV−GIVH)/(IVV+2GIVH); (2) G=IHV/IHH.; where A is anisotropy, G is a correction factor for wavelength-dependent distortion and I is the fluorescence intensity component (subscript referring to the vertical and horizontal positioning at the excitation and emission polarizers, respectively). […]

[4] = molecular target: T1, CC2 (WT); experiment: fluorescence anisotropy, 1 µM BODIPY-Ant-CC2 titrated with 1-125 µM CC2
Experimental: as §1, §2

[5] = molecular target: T2, NEMO (NF-kB essential modulator), murine; experiment: cell-based or functional assay; remark: listed apart in the source

T2 sequence (O88522 other isoform, or with tags, fused parts or gaps): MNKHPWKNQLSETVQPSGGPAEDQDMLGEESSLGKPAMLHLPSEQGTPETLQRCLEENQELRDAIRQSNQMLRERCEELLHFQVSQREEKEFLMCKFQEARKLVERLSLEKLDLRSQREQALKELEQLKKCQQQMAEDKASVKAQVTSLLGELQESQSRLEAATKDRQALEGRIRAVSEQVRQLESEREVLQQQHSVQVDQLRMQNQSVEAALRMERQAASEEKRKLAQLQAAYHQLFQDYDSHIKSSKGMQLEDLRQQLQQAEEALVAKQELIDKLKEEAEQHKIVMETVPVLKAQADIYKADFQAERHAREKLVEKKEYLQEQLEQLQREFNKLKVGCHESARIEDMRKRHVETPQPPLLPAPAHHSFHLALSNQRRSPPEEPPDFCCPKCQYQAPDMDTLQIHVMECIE

Row | Binder | binding result [2] | IC 50 (inhibition of NF-κB activation pathway) [5] [nM] | also measured
1 | B1 | no binding (tested: 10 µM) |  | IC50 of inhibition of LPS-induced NF-κB activation (β-galactosidase reporter, 70Z3-C3 cells) [1]: 22000 nM; fold reduction of LPS-induced NF-κB activation at 10 µM peptide (stringent β-galactosidase assay, 70Z3-C3 cells) [1]: 1.7 fold; stoichiometry [3]: 0.8; Kd [4]: 15200 nM
2 | B2 |  | 900 | 
3 | B3 | no binding (tested: 10 µM) |  | IC50 of inhibition of LPS-induced NF-κB activation (β-galactosidase reporter, 70Z3-C3 cells) [1]: 3000 nM; fold reduction of LPS-induced NF-κB activation at 10 µM peptide (stringent β-galactosidase assay, 70Z3-C3 cells) [1]: 5.8 fold
4 | B4 | no binding (tested: 10 µM) |  | 
5 | B5 | no binding (tested: 10 µM) |  | 
6 | B6 |  | 1100 | 
7 | B7 | no binding (tested: 10 µM) |  | 
8 | B8 |  | 900 | 
9 | B9 |  | 1000 | 
